Key:
[1] = target: Latent TGFβ binding protein-4 (LTBP4S) C-terminal region, ARCL1C mutant C1186R (human); experiment: SPR; ProteOn, LTBP4 C-terminal constructs amine-coupled on GLC chip, fibrillin-1 PF3 injected 100-3.1 nM, 10 mM HEPES, 150 mM NaCl, pH 7.4, 0.005% Tween-20, 25°C; steady state (equilibrium) analysis
[2] = target: Tropoelastin (SHELdelta26A); experiment: BLI; OctetRED96, biotinylated tropoelastin on streptavidin biosensors, LTBP4 C-terminal constructs 375-23.4 nM, 10 mM HEPES, 150 mM NaCl, pH 7.4, 0.005% Tween-20, 25°C; steady state analysis
[3] = target: T1, Tropoelastin (SHELdelta26A) (biotin where immobilised on streptavidin biosensors (position not given)); experiment: BLI
T1 chain: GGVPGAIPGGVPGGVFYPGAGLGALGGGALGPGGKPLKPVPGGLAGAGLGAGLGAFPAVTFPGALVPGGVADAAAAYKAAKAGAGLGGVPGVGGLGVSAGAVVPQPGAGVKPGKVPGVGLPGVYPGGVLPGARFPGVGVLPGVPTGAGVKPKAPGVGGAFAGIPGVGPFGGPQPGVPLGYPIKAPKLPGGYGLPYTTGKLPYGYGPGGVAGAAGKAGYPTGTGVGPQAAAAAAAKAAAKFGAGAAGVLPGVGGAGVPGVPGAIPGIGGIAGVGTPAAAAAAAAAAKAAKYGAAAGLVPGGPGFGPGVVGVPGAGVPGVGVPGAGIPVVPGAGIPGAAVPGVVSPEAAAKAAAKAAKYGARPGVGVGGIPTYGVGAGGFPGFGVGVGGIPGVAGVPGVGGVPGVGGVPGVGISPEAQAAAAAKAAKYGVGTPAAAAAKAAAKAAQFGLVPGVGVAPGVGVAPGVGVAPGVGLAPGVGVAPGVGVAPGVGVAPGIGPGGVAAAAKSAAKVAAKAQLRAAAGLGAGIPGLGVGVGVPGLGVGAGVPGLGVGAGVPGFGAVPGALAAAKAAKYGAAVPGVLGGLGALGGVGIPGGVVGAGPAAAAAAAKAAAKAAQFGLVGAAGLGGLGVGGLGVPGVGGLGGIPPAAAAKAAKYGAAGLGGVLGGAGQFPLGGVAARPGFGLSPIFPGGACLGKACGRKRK

## Fibrillin-1 PF3 fragment (from UniProt P35555 45-722) (domain or fragment)
[1]
  Kd: 40.2 nM

B1: Latent TGFβ binding protein-4 (LTBP4S) C-terminal region, ARCL1C mutant C1186R (domain or fragment)
chain: RECYFDTAAPDACDNILARNVTWQECCCTVGEGWGSGCRIQQRPGTETAEYQSLCPHGRGYLAPSGDLSLRRDVDECQLFRDQVCKSGVCVNTAPGYSCYCSNGYYYHTQRLECIDNDECADEEPACEGGRCVNTVGSYHCTCEPPLVLDGSQRRCVSNESQSLDDNLGVCWQEVGADLVCSHPRLDRQATYTECCCLYGEAWGMDCALCPAQDSDDFEALCNVLRPPAYSPPRPGGFGLPYEYGPDLGPPYQGLPYGPELYPPPALPYDPYPPPPGPFARREAPYGAPRFDMPDFEDDGGPYGESEAPAPPGPGTRWPYRSRDTRRSFPEPEEPPEGGSYAGSLAEPYEELEAEECGILDGCTNGRCVRVPEGFTCRCFDGYRLDMTRMACVDINECDEAEAASPLCVNARCLNTDGSFRCICRPGFAPTHQPHHCAPARPRA
[2]
  Kd: 154 nM
[3]
  Kd: 55.9 nM
